Laboratory results taken from US20160311917A1 (Novartis, published 2016).

T1: recombinant human biotinylated mesothelin extracellular domain with C-terminal Avi-Tag (human, site selectively biotinylated in vitro with BirA enzyme at the C-terminal Avi-Tag)
T1 construct: Produced in HEK293F cells; as printed it includes a His tag and the Avi-Tag; Immobilised on a streptavidin sensor chip for SPR; also called human MSLN ECD; human mesothelin ECD
T1 chain: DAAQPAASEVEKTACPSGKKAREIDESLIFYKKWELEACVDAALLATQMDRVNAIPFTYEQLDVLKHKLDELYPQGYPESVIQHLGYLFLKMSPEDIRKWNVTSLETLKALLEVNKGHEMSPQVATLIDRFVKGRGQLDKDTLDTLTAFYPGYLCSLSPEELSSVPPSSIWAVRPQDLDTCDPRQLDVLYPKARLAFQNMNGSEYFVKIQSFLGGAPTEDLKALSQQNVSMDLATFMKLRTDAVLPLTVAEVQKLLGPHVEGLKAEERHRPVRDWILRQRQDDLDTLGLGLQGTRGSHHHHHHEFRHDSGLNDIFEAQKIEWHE

T2: Glycosylation Deficient Mesothelin (296-588; N388Q, N496Q, N523Q) (human)
T2 construct: It already carries N388Q, N496Q and N523Q; also called hMSLN296-588; human mesothelin(296-588)
T2 chain: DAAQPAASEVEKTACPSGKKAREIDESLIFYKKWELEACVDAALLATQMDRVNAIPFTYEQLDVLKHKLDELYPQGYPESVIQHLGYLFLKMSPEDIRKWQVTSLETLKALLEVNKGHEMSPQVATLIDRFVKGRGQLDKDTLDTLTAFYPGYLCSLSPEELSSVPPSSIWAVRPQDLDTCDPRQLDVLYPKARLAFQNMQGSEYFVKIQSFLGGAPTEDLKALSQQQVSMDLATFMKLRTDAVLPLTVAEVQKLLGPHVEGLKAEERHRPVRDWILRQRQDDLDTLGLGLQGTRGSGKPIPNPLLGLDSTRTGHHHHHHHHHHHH

B1: M11 scFv (human anti-mesothelin scFv, soluble, His-tagged) (scFv)
scFv: QVQLQQSGAEVKKPGASVKVSCKASGYTFTGYYMHWVRQAPGQGLEWMGWINPNSGGTNYAQNFQGRVTMTRDTSISTAYMELRRLRSDDTAVYYCASGWDFDYWGQGTLVTVSSGGGGSGGGGSGGGGSGGGGSDIRMTQSPSSLSASVGDRVTITCRASQSIRYYLSWYQQKPGKAPKLLIYTASILQNGVPSRFSGSGSGTDFTLTISSLQPEDFATYYCLQTYTTPDFGPGTKVEIKGSHHHHHHHH
notes: also called NE10-19WD
B2: M21 scFv (human anti-mesothelin scFv, soluble, His-tagged) (scFv)
scFv: QVQLVQSWAEVKKPGASVKVSCKASGYTFTSYYMHWVRQAPGQGLEWMGIINPSGGSTSYAQKFQGRVTMTRDTSTSTVYMELSNLRSEDTAVYYCARSPRVTTGYFDYWGQGTLVTVSSGGGGSGGGGSGGGGSGGGGSDIQLTQSPSTLSASVGDRVTITCRASQSISSWLAWYQQKPGKAPKLLIYKASSLESGVPSRFSGSGSGTEFTLTISSLQPDDFATYYCQQYSSYPLTFGGGTRLEIKGSHHHHHHHH
notes: also called MM21; ZS95-03QD
B3: M23 scFv (human anti-mesothelin scFv, soluble, His-tagged) (scFv)
scFv: QVQLQQSGAEVKKPGASVKVSCKASGYTFTNYYMHWVRQAPGQGLEWMGIINPSGGYTTYAQKFQGRLTMTRDTSTSTVYMELSSLRSEDTAVYYCARIRSCGGDCYYFDNWGQGTLVTVSSGGGGSGGGGSGGGGSGGGGSDIQLTQSPSTLSASVGDRVTITCRASENVNIWLAWYQQKPGKAPKLLIYKSSSLASGVPSRFSGSGSGAEFTLTISSLQPDDFATYYCQQYQSYPLTFGGGTKVDIKGSHHHHHHHH
notes: also called XH66-84HE
B4: M12 scFv (human anti-mesothelin scFv, soluble, His-tagged) (scFv)
scFv: QVQLVQSGAEVKKPGASVKVSCKASGYTFTGYYMHWVRQAPGQGLEWMGRINPNSGGTNYAQKFQGRVTMTTDTSTSTAYMELRSLRSDDTAVYYCARTTTSYAFDIWGQGTMVTVSSGGGGSGGGGSGGGGSGGGGSDIQLTQSPSTLSASVGDRVTITCRASQSISTWLAWYQQKPGKAPNLLIYKASTLESGVPSRFSGSGSGTEFTLTISSLQPDDFATYYCQQYNTYSPYTFGQGTKLEIKGSHHHHHHHH
notes: also called DE12-14RD
B5: M5 scFv (human anti-mesothelin scFv, soluble, His-tagged) (scFv)
scFv: QVQLVQSGAEVEKPGASVKVSCKASGYTFTDYYMHWVRQAPGQGLEWMGWINPNSGGTNYAQKFQGRVTMTRDTSISTAYMELSRLRSDDTAVYYCASGWDFDYWGQGTLVTVSSGGGGSGGGGSGGGGSGGGGSDIVMTQSPSSLSASVGDRVTITCRASQSIRYYLSWYQQKPGKAPKLLIYTASILQNGVPSRFSGSGSGTDFTLTISSLQPEDFATYYCLQTYTTPDFGPGTKVEIKGSHHHHHHHH
notes: also called scFv M5; XP31-20LC
B6: M16 scFv (human anti-mesothelin scFv, soluble, His-tagged) (scFv)
scFv: EVQLVESGGGLVQPGRSLRLSCAASGFTFDDYAMHWVRQAPGKGLEWVSGISWNSGSTGYADSVKGRFTISRDNAKNSLYLQMNSLRAEDTALYYCAKDSSSWYGGGSAFDIWGQGTMVTVSSGGGGSGGGGSGGGGSSSELTQEPAVSVALGQTVRITCQGDSLRSYYASWYQQKPGQAPVLVIFGRSRRPSGIPDRFSGSSSGNTASLIITGAQAEDEADYYCNSRDNTANHYVFGTGTKLTVLGSHHHHHHHH
notes: also called XS87-99RD
B7: M17 scFv (human anti-mesothelin scFv, soluble, His-tagged) (scFv)
scFv: EVQLVESGGGLVQPGRSLRLSCAASGFTFDDYAMHWVRQAPGKGLEWVSGISWNSGSTGYADSVKGRFTISRDNAKNSLYLQMNSLRAEDTALYYCAKDSSSWYGGGSAFDIWGQGTMVTVSSGGGGSGGGGSGGGGSSSELTQDPAVSVALGQTVRITCQGDSLRSYYASWYQQKPGQAPVLVIYGKNNRPSGIPDRFSGSSSGNTASLTITGAQAEDEADYYCNSRGSSGNHYVFGTGTKVTVLGSHHHHHHHH
notes: also called NS89-94MD
B8: M14 scFv (human anti-mesothelin scFv, soluble, His-tagged) (scFv)
scFv: QVQLVQSGAEVRAPGASVKISCKASGFTFRGYYIHWVRQAPGQGLEWMGIINPSGGSRAYAQKFQGRVTMTRDTSTSTVYMELSSLRSDDTAMYYCARTASCGGDCYYLDYWGQGTLVTVSSGGGGSGGGGSGGGGSGGGGSDIQMTQSPPTLSASVGDRVTITCRASENVNIWLAWYQQKPGKAPKLLIYKSSSLASGVPSRFSGSGSGAEFTLTISSLQPDDFATYYCQQYQSYPLTFGGGTKVDIKGSHHHHHHHH
notes: also called BS83-95ID

Molecular target: T1, recombinant human biotinylated …
Assay: SPR, Biacore T200; biotinylated mesothelin ECD on streptavidin chip, scFv injected; steady state affinity model
Method: (§1) Binding affinity of purified scFvs was measured on a Biacore T200 system. Briefly, recombinant human biotinylated mesothelin ECD was immobilized on a streptavidin (SA) sensor chip surface at a density of 150 RU. Purified scFv was injected over the chip under constant flow rate at three-fold serial dilutions. Association and dissociation rates of the protein complex were monitored for 270 seconds and 400 seconds, respectively. Double referencing was performed against a blank immobilized flow cell and a buffer blank. Affinity was determined with a Langmuir 1:1 binding model when possible, for those scFVs where accurate fitting was not possible due to fast on and off rates, the steady state model was used.

Row | Binder | Kd [µM]
1 | B1 | 0.0647
2 | B2 | 0.11
3 | B3 | 0.114
4 | B4 | 0.307

Molecular target: T2, Glycosylation Deficient Mesothelin …
Assay: Hydrogen-deuterium exchange mass spectrometry: difference in deuterium uptake of the co-expressed complex against unbound mesothelin, peptides 456-586
Method: For hMSLN₂₉₆₋₅₈₈ deuterium labeling experiments in the absence of antibody, 400 pmol of hMSLN₂₉₆₋₅₈₈, volume of 6.9 was diluted using 100 μl of the deuterium buffer for 15 minutes at 4° C. The labeling reaction was then quenched with 100 μl of chilled quench buffer at 2° C. for three minutes followed by injected onto the LC-MS system for automated pepsin digestion and peptide analysis.
The labeling reaction was then quenched with 100 μl of chilled quench buffer at 2° C. for three minutes followed by injected onto the LC-MS system for automated pepsin digestion and peptide analysis. […] The labeling reaction was then quenched with 100 μl of chilled quench buffer at 2° C. for three minutes, and then injected onto the LC-MS system for automated pepsin digestion and peptide analysis.
All deuterium exchange experiments were quenched using 0.5 M TCEP and 3 M urea (pH=2.6). After quenching, the exchanged antigen was subjected to on-line pepsin digestion using a Poroszyme Immobilized Pepsin column (2.1×30 mm) at 12° C. followed by trapping on a Waters Vanguard HSS T3 trapping column.

Row | Binder | binding result
5 | B5 | binds

Molecular target: T1, recombinant human biotinylated …
Assay: SPR, Biacore T200; biotinylated mesothelin ECD on streptavidin chip, scFv injected; 1:1 binding model
Method: as §1

Row | Binder | Kd [µM] | koff [s⁻¹] | kon [M⁻¹ s⁻¹]
6 | B5 | 0.0269 | 0.00113 | 42000
7 | B6 | 0.0227 | 0.00395 | 174000
8 | B7 | 0.0278 | 0.0145 | 522000
9 | B8 | 0.0009 | 0.00251 | 2.75e+06
